Measured values as given in article PMC8183521 (2021).

Biological target: SARS-CoV-2 (2019-nCoV) Spike RBD-His Recombinant Protein (SARS-CoV-2, UniProt P0DTC2 319-541)
Assay: ELISA

B1: B-38 (antibody, V domains shown)
VH: EVQLVESGGGLVQPGGSLRLSCAASGFIVSSNYMSWVRQAPGKGLEWVSVIYSGGSTYYADSVKGRFTISRHNSKNTLYLQMNSLRAEDTAVYYCAREAYGMDVWGQGTTVTVSS
VL: DIVMTQSPSFLSASVGDRVTITCRASQGISSYLAWYQQKPGKAPKLLIYAASTLQSGVPSRFSGSGSGTEFTLTISSLQPEDFATYYCQQLNSYPPYTFGQGTKLEIK
EC50: 1.5 µg/mL
